Test results taken from patent US20230212244A1 (IMMATICS BIOTECHNOLOGIES, published 2023).
Square brackets hold non-standard residues; d marks the D form. Ends that are not written are not given here. pS = N[C@@H](COP(=O)(O)O)C(=O)O

What follows are binders tested against T1, HLA-A*02:01 (human) (assay: UV-ligand exchange ELISA (anti-β2m), peptide exchange yield grade).
T1 construct: MHC class I monomer made peptide-receptive by UV cleavage of a UV-sensitive ligand; also called peptide-receptive MHC molecules
Source text: Candidate peptides for T cell based therapies according to the present invention were further tested for their MHC binding capacity (affinity). The individual peptide-MHC complexes were produced by UV-ligand exchange, where a UV-sensitive peptide is cleaved upon UV-irradiation, and exchanged with the peptide of interest as analyzed. Only peptide candidates that can effectively bind and stabilize the peptide-receptive MHC molecules prevent dissociation of the MHC complexes. To determine the yield of the exchange reaction, an ELISA was performed based on the detection of the light chain (β2m) of stabilized MHC complexes. The assay was performed as generally described in Rodenko et al. (Rodenko et al., 2006).
96 well MAXISorp plates (NUNC) were coated over night with 2ug/ml streptavidin in PBS at room temperature, washed 4× and blocked for1h at 37° C. in 2% BSA containing blocking buffer. Refolded HLA-A*02:01/MLA-001 monomers served as standards, covering the range of 15-500 ng/ml. Peptide-MHC monomers of the UV-exchange reaction were diluted 100 fold in blocking buffer. Samples were incubated for 1h at 37° C., washed four times, incubated with 2 ug/ml HRP conjugated anti-β2m for 1h at 37° C., washed again and detected with TMB solution that is stopped with […]. Absorption was measured at 450 nm. Candidate peptides that show a high exchange yield (preferably higher than 50%, most preferred higher than 75 %) are generally preferred for a generation and production of antibodies or fragments thereof, and/or T cell receptors or fragments thereof, as they show sufficient avidity to the MHC molecules and prevent dissociation of the MHC complexes.

ALWEKNTHL [peptide ALWEKNTHL (SEQ ID NO: 33)] and FLDANGHFV [peptide FLDANGHFV (SEQ ID NO: 23)] fall in the same range of peptide exchange yield: 50 to 75% for the first, 50 to 75% for the second.

ALAELLHGA [peptide ALAELLHGA (SEQ ID NO: 45)] and GLLESPSIFNFTA [peptide GLLESPSIFNFTA (SEQ ID NO: 36)] fall in the same range of peptide exchange yield: 50 to 75% for the first, 50 to 75% for the second.

ALSNVIHKV [peptide ALSNVIHKV (SEQ ID NO: 40)] and ALLPRYFFL [peptide ALLPRYFFL (SEQ ID NO: 2)] fall in the same range of peptide exchange yield: 20 to 50% for the first, 20 to 50% for the second.

SILDDSFKL [peptide SILDDSFKL (SEQ ID NO: 42)] and AMAEMVLQV [peptide AMAEMVLQV (SEQ ID NO: 190)] cannot be ordered by peptide exchange yield: at least 75% for the first, 50 to 75% for the second.

SVIDHIHLISV [peptide SVIDHIHLISV (SEQ ID NO: 167)] and YLKDGDVML [peptide YLKDGDVML (SEQ ID NO: 20)] fall in the same range of peptide exchange yield: 50 to 75% for the first, 50 to 75% for the second.

LLLDTVTMQV [peptide LLLDTVTMQV (SEQ ID NO: 172)] and GLLEARGILGL [peptide GLLEARGILGL (SEQ ID NO: 166)] fall in the same range of peptide exchange yield: 50 to 75% for the first, 50 to 75% for the second.

First: ALDSSNSMQTI [peptide ALDSSNSMQTI (SEQ ID NO: 52)]
Second: GLFAGLGGAGA [peptide GLFAGLGGAGA (SEQ ID NO: 37)]
The peptide exchange yield of the first is lower: 20 to 50% for the first, 50 to 75% for the second.

First: QMLDVAIRV [peptide QMLDVAIRV (SEQ ID NO: 29)]
Second: LLADEDSSYL [peptide LLADEDSSYL (SEQ ID NO: 27)]
The peptide exchange yield of the first is higher: 50 to 75% for the first, 20 to 50% for the second.

First: RLLDFPEAMVL [peptide RLLDFPEAMVL (SEQ ID NO: 165)]
Second: KLNTETFGV [peptide KLNTETFGV (SEQ ID NO: 32)]
The peptide exchange yield of the first is higher: at least 75% for the first, 20 to 50% for the second.

RLIPDTLYSV [peptide RLIPDTLYSV (SEQ ID NO: 3)] and KMSEKILLL [peptide KMSEKILLL (SEQ ID NO: 186)] cannot be ordered by peptide exchange yield: at least 75% for the first, 50 to 75% for the second.

First: SLLDENNVSSYL [peptide SLLDENNVSSYL (SEQ ID NO: 184)]
Second: YLFREPATI [peptide YLFREPATI (SEQ ID NO: 178)]
The peptide exchange yield of the first is higher: 50 to 75% for the first, 20 to 50% for the second.

TLDAAQPRV [peptide TLDAAQPRV (SEQ ID NO: 43)] and SLAPTPVSA [peptide SLAPTPVSA (SEQ ID NO: 38)] fall in the same range of peptide exchange yield: 20 to 50% for the first, 20 to 50% for the second.

GLHNVVYGI (also called GLHNWYGI) [peptide GLHNVVYGI (SEQ ID NO: 187)] and VLVDQSWVL [peptide VLVDQSWVL (SEQ ID NO: 16)] fall in the same range of peptide exchange yield: 50 to 75% for the first, 50 to 75% for the second.

ALLQGAIESV [peptide ALLQGAIESV (SEQ ID NO: 177)] and FLVDGPRVQL [peptide FLVDGPRVQL (SEQ ID NO: 188)] fall in the same range of peptide exchange yield: 50 to 75% for the first, 50 to 75% for the second.

LLYGKYVSV [peptide LLYGKYVSV (SEQ ID NO: 31)] and RLYTKLLNEA [peptide RLYTKLLNEA (SEQ ID NO: 19)] fall in the same range of peptide exchange yield: 50 to 75% for the first, 50 to 75% for the second.

RLL[pS]PLSSA (Phosphopeptide) [peptide RLLJPLSSA (SEQ ID NO: 179)] and AISEVIGKITA [peptide AISEVIGKITA (SEQ ID NO: 189)] fall in the same range of peptide exchange yield: 50 to 75% for the first, 50 to 75% for the second.

First: SLESKLTSV [peptide SLESKLTSV (SEQ ID NO: 44)]
Second: GLSSAYGGL [peptide GLSSAYGGL (SEQ ID NO: 30)]
The peptide exchange yield of the first is higher: 50 to 75% for the first, 10 to 20% for the second.

First: ILDDSFKLL [peptide ILDDSFKLL (SEQ ID NO: 41)]
Second: VLIDHRWVL [peptide VLIDHRWVL (SEQ ID NO: 21)]
The peptide exchange yield of the first is lower: 20 to 50% for the first, 50 to 75% for the second.

GLIRFPLMTI [peptide GLIRFPLMTI (SEQ ID NO: 168)] and TLLGGKEAQALGV [peptide TLLGGKEAQALGV (SEQ ID NO: 175)] fall in the same range of peptide exchange yield: 50 to 75% for the first, 50 to 75% for the second.

VLYTGVVRV [peptide VLYTGWRV (SEQ ID NO: 185)] and VLDGVLMEL [peptide VLDGVLMEL (SEQ ID NO: 24)] fall in the same range of peptide exchange yield: 50 to 75% for the first, 50 to 75% for the second.

ALAGGITMV [peptide ALAGGITMV (SEQ ID NO: 170)] and QLFSEIHNL [peptide QLFSEIHNL (SEQ ID NO: 191)] cannot be ordered by peptide exchange yield: 50 to 75% for the first, at least 75% for the second.

ALTEIQEFI [peptide ALTEIQEFI (SEQ ID NO: 28)] and FLSSLKGGLL [peptide FLSSLKGGLL (SEQ ID NO: 18)] cannot be ordered by peptide exchange yield: at least 75% for the first, 50 to 75% for the second.

QVWEIQHTV [peptide QVWEIQHTV (SEQ ID NO: 51)] and GLASKENFSNVSL [peptide GLASKENFSNVSL (SEQ ID NO: 26)] fall in the same range of peptide exchange yield: 20 to 50% for the first, 20 to 50% for the second.

TLQEVVTGV (also called TLQEWTGV) [peptide TLQEVVTGV (SEQ ID NO: 183)] and SLADRLIGV [peptide SLADRLIGV (SEQ ID NO: 25)] cannot be ordered by peptide exchange yield: 50 to 75% for the first, at least 75% for the second.

WLFDDGGLTL [peptide WLFDDGGLTL (SEQ ID NO: 5)] and KLLDLTVRI [peptide KLLDLTVRI (SEQ ID NO: 35)] cannot be ordered by peptide exchange yield: at least 75% for the first, 50 to 75% for the second.

First: GLIDEVMVL (also called CYP2W1-001) [peptide GLIDEVMVL (SEQ ID NO: 22)]
Second: FLDASDPAL [peptide FLDASDPAL (SEQ ID NO: 48)]
The peptide exchange yield of the first is higher: 50 to 75% for the first, 20 to 50% for the second.

First: ILLEKSVSV [peptide ILLEKSVSV (SEQ ID NO: 34)]
Second: KLYERCEVV (also called KLYERCEVV) [peptide KLYERCEW (SEQ ID NO: 47)]
The peptide exchange yield of the first is higher: 50 to 75% for the first, 20 to 50% for the second.

First: RLAELTVDEFL [peptide RLAELTVDEFL (SEQ ID NO: 4)]
Second: RTLDKVLEV [peptide RTLDKVLEV (SEQ ID NO: 176)]
The peptide exchange yield of the first is higher: 50 to 75% for the first, 20 to 50% for the second.

ALAAARVEL [peptide ALAAARVEL (SEQ ID NO: 17)] and GLDDRYSLV [peptide GLDDRYSLV (SEQ ID NO: 46)] fall in the same range of peptide exchange yield: 50 to 75% for the first, 50 to 75% for the second.

SLNKWIFTV [peptide SLNKWIFTV (SEQ ID NO: 182)] and YLAHFIEGL [peptide YLAHFIEGL (SEQ ID NO: 169)] cannot be ordered by peptide exchange yield: at least 75% for the first, 50 to 75% for the second.

First: ALLNGEYLLAA [peptide ALLNGEYLLAA (SEQ ID NO: 54)]
Second: RLQETEGMVAV [peptide RLQETEGMVAV (SEQ ID NO: 171)]
The peptide exchange yield of the first is higher: 50 to 75% for the first, 20 to 50% for the second.

TLMAEMHVV [peptide TLMAEMHW (SEQ ID NO: 50)] and KLGDLMVLL [peptide KLGDLMVLL (SEQ ID NO: 173)] fall in the same range of peptide exchange yield: 50 to 75% for the first, 50 to 75% for the second.

ILLDDNMQIRL [peptide ILLDDNMQIRL (SEQ ID NO: 174)] and FLLGSEIKL [peptide FLLGSEIKL (SEQ ID NO: 53)] cannot be ordered by peptide exchange yield: at least 75% for the first, 50 to 75% for the second.

In the case of NLFDLGGQYLRV [peptide NLFDLGGQYLRV (SEQ ID NO: 181)], the peptide exchange yield is reported as 50 to 75%.
